Reference: paper PMC3378870 (Nucleic Acids Research, 2012)
Changes are numbered by the printed parent chain.

T1: VapB;VapC (Salmonella enterica serovar Typhimurium …, UniProt Q7CPV2;Q8ZM86 1-75;1-132, |)
T1 sequence 1: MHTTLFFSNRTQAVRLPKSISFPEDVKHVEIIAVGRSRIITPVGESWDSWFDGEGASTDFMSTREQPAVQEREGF
T1 sequence 2: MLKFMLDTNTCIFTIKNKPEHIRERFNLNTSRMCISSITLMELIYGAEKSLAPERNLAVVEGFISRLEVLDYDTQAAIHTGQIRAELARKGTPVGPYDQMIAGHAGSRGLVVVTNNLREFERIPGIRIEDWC

T2: VapC I44A variant (Salmonella enterica serovar Typhimurium …, UniProt Q8ZM86 1-132, I44A)
T2 sequence: T1 sequence 2 with I44A

T3: VapC A76S variant (Salmonella enterica serovar Typhimurium …, UniProt Q8ZM86 1-132, A76S)
T3 sequence: T1 sequence 2 with A76S

T4: VapC Y72A variant (Salmonella enterica serovar Typhimurium …, UniProt Q8ZM86 1-132, Y72A)
T4 sequence: T1 sequence 2 with Y72A

T5: VapC L43A variant (Salmonella enterica serovar Typhimurium …, UniProt Q8ZM86 1-132, L43A)
T5 sequence: T1 sequence 2 with L43A

B1: vapO1, 36 bp (dsDNA)
DNA 1: CTCATAATGGATATACGCGTTGTATATCCAGAAAGG
DNA 2: CCTTTCTGGATATACAACGCGTATATCCATTATGAG
B2: VapC toxin of Salmonella enterica serovar Typhimurium LT2 (enzyme)
chain: T1 sequence 2
B3: VapB antitoxin of Salmonella enterica serovar Typhimurium LT2 (natural protein, UniProt Q7CPV2 1-75, looked up)
chain: T1 sequence 1

Key:
VapB;VapC = target: T1, VapB;VapC; assay: EMSA
[1] = target: the molecule itself
VapC I44A variant = target: T2, VapC I44A variant; assay: native gel or EMSA
[2] = target: B2; assay: native gel or EMSA
VapC A76S variant = target: T3, VapC A76S variant; assay: native gel or EMSA
VapC Y72A variant = target: T4, VapC Y72A variant; assay: native gel or EMSA
VapC L43A variant = target: T5, VapC L43A variant; assay: native gel or EMSA

## B1
VapB;VapC
  binding result: binds

## B2
[1]
  stoichiometry N: 2

## B3
VapC I44A variant
  binding result: binds
[2]
  binding result: binds
VapC A76S variant
  binding result: binds
VapC Y72A variant
  binding result: binds
VapC L43A variant
  binding result: binds
